Patent publication US6613875B1, “Cyclic peptide tube” (The Scripps Research Institute, priority 1993, dated 2003)
Square brackets hold non-standard residues; d marks the D form. Peptide text beside a SMILES is read from it. dNMeA = CN[C@H](C)C(=O)O

What was measured:
[1] = pH dependent solubility of peptide subunit in aqueous media; format: physicochemical
Source text: FIG. 17 illustrates the hydrogen bonding of molecular tubes constructed with cyclic peptide 1.
The design, synthesis, and characterization of a molecular tube, i.e., a cyclic peptide tube or “organic nanotube,” is described. A rationally designed 24-membered ring peptide structure can be constructed and shown to undergo a proton-triggered self-assembly to produce tubular structures hundreds of nanometers long, with internal van der Waals diameter of 7 to 8 Å. Formation of tubular structures is established by Electron Microscopy (EM), electron diffraction studies, and Fourier Transformed Infrared Spectroscopy (FT-IR). A three-dimensional model of the molecular tube consistent with the experimental observations is also presented. As opposed to the recently identified closed concentric graphite tubes, cyclic peptide tubes, by virtue of the cyclic nature of their components, are open ended structures and have uniform shape and internal diameter, e.g., Tsang, S. C. et al. (1993), Nature 362, 520-522 and Ajayan, P. M. et al. (1993), Nature 362, 522-525 (1993). The proton-triggered self-assembly process described herein is a highly convergent approach in which numerous ring-shaped peptide subunits interact through an extensive network of hydrogen bonds to form molecular tube structures. Example I features an eight-residue cyclic peptide with the following sequence: cyclo[-(D-Ala-Glu-D-Ala-Gln)2-]. (Sequence No.: 1) In designing the subunit, it is shown that cyclic peptides with an even number of alternating D- and L-amino acids can adopt or sample a low energy ring-shaped flat conformation in which all backbone amide functionalities lie approximately perpendicular to the plane of the structure. In this conformation, subunits can stack in an anti-parallel fashion and participate in backbone-backbone intermolecular hydrogen bonding to furnish a contiguous β-sheet structure. Moreover, because of the alternating D- and L-amino acid sequence, peptide side chains must \necessarily lie on the exterior of the ensemble thereby creating the desired hollow tubular core structure. […]

[2] = Dimerization (self-assembly) of N-methylated cyclic peptide in nonpolar solvents, 1H NMR / van't Hoff; format: physicochemical
Source text: Variable temperature NMR experiments in DMSO indicate cis-trans conformational activation barriers on the order of 16 to 17 kcal.mol^−1. However, in nonpolar solvents such as carbon tetrachloride (CCl4) or deuterochloroform (CDCl3) the peptide exists in an all trans flat-ring-shaped backbone conformation which is in dynamic equilibrium with the expected dimeric cylindrical ensemble. […] The preponderance of a flat ring-shaped backbone conformation is also indicated by the observed 7.5 Hz JNH-CaH coupling constant. Intermolecular hydrogen bonding interactions producing the stacked dimeric ensemble are signified by the expected downfield shift of the phenylalanine N—H backbone resonance from 6.98 to 8.73 ppm (JNH-CaH=8.5 Hz) and are unequivocally established by the observed exchange and NOE cross peaks in its ROESY spectrum.
Formation of a tight hydrogen bonded ensemble with an average intersubunit N—O distance of 2.95 Å is also evidenced by the appearance of an N—H stretching band in the infrared spectrum at 3309 cm^−1.
[…] […] The Ka(CCl4) reported was performed in a mixture of 84% CCl4 and 16% CDCl3 for solubility reasons.
Variable temperature studies (van't Hoff plots) establish the following thermodynamic parameters for the dimerization process in chloroform: ΔCp=−203.1 cal.K^−1.mol^−1, ΔH^0298=−11.0 kcal.mol^−1, and ΔS^0298=−23.7 e.u. which clearly supports the expected enthalpic contribution of intermolecular hydrogen bonding interactions (0.5 to 0.7 kcal.mol^−1 for each hydrogen bonding interaction) as the major driving force in the self-assembly process.
The above experiments indicate that the peptide subunit adopts a flat ring-shaped solution conformation which is energetically favored toward ring stacking and intermolecular hydrogen bonding interactions by 4.0 to 5.6 kcal.mol^−1, depending on the solvent employed. It follows then that an additive gain in free energy of stabilization is to be expected as the number of ring-stacking interactions are increased. This is particularly relevant to the self-assembled nanotubes and to the transmembrane ion channel structures that can be produced.

[3] = Incorporation of peptide subunit into lipid bilayers of large unilamellar vesicles (absorption and fluorescence spectroscopy); format: physicochemical; conditions: aqueous liposomal suspensions
Source text: Incorporation of the peptide subunit into lipid bilayers using large unilamellar vesicles has been established by absorption and fluorescence spectroscopy. Formation of the hydrogen-bonded transmembrane channel structure in phosphatidylcholin liposomes has been supported by FT-IR spectroscopy (FIG. 24). The observed amide-I band at 1624 cm^−1 is not only similar to the carbonyl stretching frequencies found in other nanotube structures disclosed herein, but is also consistent with the infrared spectrum of gramicidin A in similar lipid bilayers. (E. Nabedryk et al in Biophys. J. (1982), vol. 38, pages 243-249. Furthermore, the observed N-H stretching frequency at 3272 cm^−1 strongly supports the formation of a tight network of hydrogen bonds with an average intersubunit distance of 4.7 Å.
The second control peptide cyclo[-(^MeN-D-Ala-Phe)4-] which has the desirable hydrophobic surface characteristics but lacks the propensity for participating in extended hydrogen bonding network, was also designed and tested for ion transport activity. The peptide design incorporates a novel N-methylation strategy on one face of the ring structure which predisposes the subunit toward a dimeric cylindrical structure (Ghadiri, M. R., Kobayashi, K., Granja, J. R., Chadha, R., and McRee, D. E. manuscript in preparation). Such a dimeric cylindrical ensemble is approximately 10 Å thick and can not span the lipid bilayer.
The ten-residue peptide subunit employed in the present study, cyclo[-Gln-(D-Leu-Trp)4-D-Leu-], is made up of largely tryptophan and leucine residues to favor its partitioning into and self-assembly in lipid bilayers. It was synthesized on solid support^5 and characterized by ^1H NMR spectroscopy and mass spectrometry. […] This has been supported by absorption and fluorescence spectrophotometry and gel permeation studies. Formation of a hydrogen bonded transmembrane channel structure in phosphatidylcholin liposomes has been established by FT-IR spectroscopy^6. […]

[4] = Proton transport (collapse of pH gradient) in vesicles with entrapped 5(6)-carboxyfluorescein; format: biochemical; conditions: vesicles pH 6.5 inside, pH 5.5 outside; 25° C.; equal molar amounts of channel forming compounds
Source text: The proton efflux is expressed in terms of the fractional change in the fluorescence intensity of vesicle entrapped 5(6)-carboxyfluorescein as a function of time (sampling time was at 0.3 seconds interval). Equal molar amounts of channel forming compounds were used in each experiment to allow direct comparisons of channel-mediated proton transport activity. The amount of added channel forming compounds in each experiment ranged from of 2 to 20 nmoles corresponding to approximately 150 channels per liposome for the lowest concentrations to 1100 channels per liposome for the highest amount of added compounds.
Formation of transmembrane channels was also inferred from its highly efficient proton transport activity. Vesicles were prepared having pH 6.5 inside and pH 5.5 in the outside bulk solution. The collapse of the imposed pH gradient in these vesicles, upon formation of the putative transmembrane channel structure, was studied by monitoring the fluorescence intensity of an entrapped pH-sensitive dye. (V.E. Carmichael et al, in J.Am. Chem. Soc. (1989), vol. 111, pages 767-769). […] Unilamellar vesicles were prepared by the reverse-phase evaporation using DPPC, OPPC, cholestrol in the ratio of 1:1:2 in a solution containing 5(6)-carboxyfluorescein (20 mM in phosphate/saline buffer: 137 mM NaCl, 2.6 mM KCl, 6.4 mM Na2HPO4, 1.4 mM KH2PO4, pH 6.5) according to the method of F. Szoka et al. in Proc. Natl. Acad. Sci. USA (1978), vol. 75, pages 4194-4198. […] Vesicles formed in this way are approximately 150 nanometer in diameter as determined by electron microscopy. […] To the cuvett, through an injector port, […] of the channel forming compounds in DMSO was added with continuous fluorescence monitoring at 520 nm (excitation at 470 nm). The observed data were then normalized for comparison into the fractional change in fluorescence ((I0−It)/(I0−I∞)) (V. E. Carmichael et al, in J.Am. Chem. Soc. (1989), vol. 111, pages 767-769)). […]

solubility in aqueous media ([1]; acidic / low pH)	solubility in aqueous media ([1]; acidic / low pH, listed as cyclo[-(D-Ala-Glu-D-Ala-Gln)2-])	solubility in aqueous media ([1]; high (alkaline) pH)	Compound	association constant Ka(CCl4) of dimerization ([2]; 293 K, mixture of 84% CCl4 and 16% CDCl3, lower limit (included water)) [M⁻¹]	ΔCp of dimerization ([2]; chloroform, van't Hoff plots) [cal.K^−1.mol^−1]	ΔH^0298 of dimerization ([2]; chloroform, van't Hoff plots) [kcal/mol]	ΔS^0298 of dimerization ([2]; chloroform, van't Hoff plots) [e.u.]	association constant Ka(CDCl3) of dimerization ([2]; water rigorously excluded (4 Å molecular sieves)) [M⁻¹]	partitioning / incorporation into lipid bilayers [3]	apparent ion (proton) transport activity [4]
lower water solubility	lower solubility	high water solubility	C[C@H]1NC(=O)[C@H](CCC(N)=O)NC(=O)[C@@H](C)NC(=O)[C@H](CCC(=O)O)NC(=O)[C@@H](C)NC(=O)[C@H](CCC(N)=O)NC(=O)[C@@H](C)NC(=O)[C@H](CCC(=O)O)NC1=O [cyclic peptide 1, cyclo[-(Gln-D-Ala-Glu-D-Ala)2-]] (cyclo(Q[dA]E[dA]Q[dA]E[dA]))	–	–	–	–	–	–	–
–	–	–	cyclo[-(L-Phe-D-^Me NAla)4-] (cyclo(F[dNMeA]F[dNMeA]F[dNMeA]F[dNMeA]); SMILES C[C@@H]1C(=O)N[C@@H](Cc2ccccc2)C(=O)N(C)[C@H](C)C(=O)N[C@@H](Cc2ccccc2)C(=O)N(C)[C@H](C)C(=O)N[C@@H](Cc2ccccc2)C(=O)N(C)[C@H](C)C(=O)N[C@@H](Cc2ccccc2)C(=O)N1C) [N-methylated cap subunit / second control peptide, forms dimeric cylindrical structure]	14000	−203.1	-11.0	−23.7	2540	partition effectively	does not promote proton transport activity
–	–	–	cyclo[-(Gln-D-Leu)4-] (cyclo(Q[dL]Q[dL]Q[dL]Q[dL]); SMILES CC(C)C[C@H]1NC(=O)[C@H](CCC(N)=O)NC(=O)[C@@H](CC(C)C)NC(=O)[C@H](CCC(N)=O)NC(=O)[C@@H](CC(C)C)NC(=O)[C@H](CCC(N)=O)NC(=O)[C@@H](CC(C)C)NC(=O)[C@H](CCC(N)=O)NC1=O) [cyclo[-(Gln-D-Leu)4], control peptide lacking surface characteristics for partitioning into lipid bilayers]	–	–	–	–	–	–	does not display any ion transport activity
